Data as given in patent EP2784083A1 (Charité - Universitätsmedizin Berlin, dated 2014).

T1: murine Tβr1 (murine, UniProt Q64729 30-503)
T1 sequence (looked up): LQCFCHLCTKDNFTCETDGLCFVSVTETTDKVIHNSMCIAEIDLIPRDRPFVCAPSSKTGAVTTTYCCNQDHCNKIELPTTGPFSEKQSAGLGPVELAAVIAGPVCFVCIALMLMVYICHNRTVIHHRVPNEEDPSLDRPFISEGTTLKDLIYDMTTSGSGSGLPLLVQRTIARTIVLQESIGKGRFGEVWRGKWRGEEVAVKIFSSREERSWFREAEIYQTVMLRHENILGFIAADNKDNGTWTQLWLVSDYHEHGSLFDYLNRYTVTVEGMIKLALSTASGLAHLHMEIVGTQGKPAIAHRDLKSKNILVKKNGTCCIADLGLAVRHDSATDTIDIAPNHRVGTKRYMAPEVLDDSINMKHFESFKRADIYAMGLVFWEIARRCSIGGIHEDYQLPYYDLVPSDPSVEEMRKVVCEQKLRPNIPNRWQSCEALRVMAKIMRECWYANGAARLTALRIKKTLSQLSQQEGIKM

T2: murine Acvr1 c (murine, UniProt Q8K348 26-493)
T2 sequence (looked up): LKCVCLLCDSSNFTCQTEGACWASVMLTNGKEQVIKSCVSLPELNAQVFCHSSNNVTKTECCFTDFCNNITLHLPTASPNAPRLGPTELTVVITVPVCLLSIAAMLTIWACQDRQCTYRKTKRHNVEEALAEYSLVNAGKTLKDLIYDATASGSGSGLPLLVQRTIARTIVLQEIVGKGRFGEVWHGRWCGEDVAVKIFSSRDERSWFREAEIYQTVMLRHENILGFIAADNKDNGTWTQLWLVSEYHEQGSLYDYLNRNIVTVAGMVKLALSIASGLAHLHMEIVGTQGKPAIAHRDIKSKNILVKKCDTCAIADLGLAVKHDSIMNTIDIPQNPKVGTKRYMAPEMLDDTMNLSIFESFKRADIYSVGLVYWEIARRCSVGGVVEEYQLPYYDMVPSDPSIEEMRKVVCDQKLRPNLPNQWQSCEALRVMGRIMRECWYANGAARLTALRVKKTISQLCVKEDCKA

T3: murine Actr1 b (murine, UniProt Q61271 24-505)
T3 sequence (looked up): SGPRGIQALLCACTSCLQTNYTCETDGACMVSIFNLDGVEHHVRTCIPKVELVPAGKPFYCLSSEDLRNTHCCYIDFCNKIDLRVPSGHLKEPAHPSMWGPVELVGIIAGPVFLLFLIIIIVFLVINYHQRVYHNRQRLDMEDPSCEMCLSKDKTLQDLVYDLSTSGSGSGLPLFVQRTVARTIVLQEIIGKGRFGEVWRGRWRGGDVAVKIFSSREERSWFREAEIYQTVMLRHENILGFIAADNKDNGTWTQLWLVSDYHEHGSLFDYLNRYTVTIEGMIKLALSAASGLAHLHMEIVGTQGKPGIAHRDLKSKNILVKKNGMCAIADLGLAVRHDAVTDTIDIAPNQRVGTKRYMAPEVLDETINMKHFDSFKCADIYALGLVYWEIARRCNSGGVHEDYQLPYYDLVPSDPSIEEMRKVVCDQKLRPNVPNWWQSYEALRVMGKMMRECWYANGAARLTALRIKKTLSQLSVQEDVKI

T4: murine Acvr1 (murine, UniProt P37172 21-509)
T4 sequence (looked up): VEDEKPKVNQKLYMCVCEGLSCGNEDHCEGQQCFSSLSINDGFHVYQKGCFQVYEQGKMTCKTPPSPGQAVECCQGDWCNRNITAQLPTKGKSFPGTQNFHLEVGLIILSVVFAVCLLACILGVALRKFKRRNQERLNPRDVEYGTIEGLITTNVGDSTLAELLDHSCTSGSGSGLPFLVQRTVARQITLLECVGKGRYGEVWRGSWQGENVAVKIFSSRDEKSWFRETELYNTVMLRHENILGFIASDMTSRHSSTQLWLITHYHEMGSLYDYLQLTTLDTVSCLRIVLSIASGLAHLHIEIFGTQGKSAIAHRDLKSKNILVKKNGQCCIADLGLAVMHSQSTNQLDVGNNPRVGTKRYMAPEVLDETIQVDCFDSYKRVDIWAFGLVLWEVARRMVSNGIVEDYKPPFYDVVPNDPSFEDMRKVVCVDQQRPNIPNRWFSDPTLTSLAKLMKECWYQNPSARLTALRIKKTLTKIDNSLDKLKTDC

T5: murine Acvrl1 (murine, UniProt Q61288 23-502)
T5 sequence (looked up): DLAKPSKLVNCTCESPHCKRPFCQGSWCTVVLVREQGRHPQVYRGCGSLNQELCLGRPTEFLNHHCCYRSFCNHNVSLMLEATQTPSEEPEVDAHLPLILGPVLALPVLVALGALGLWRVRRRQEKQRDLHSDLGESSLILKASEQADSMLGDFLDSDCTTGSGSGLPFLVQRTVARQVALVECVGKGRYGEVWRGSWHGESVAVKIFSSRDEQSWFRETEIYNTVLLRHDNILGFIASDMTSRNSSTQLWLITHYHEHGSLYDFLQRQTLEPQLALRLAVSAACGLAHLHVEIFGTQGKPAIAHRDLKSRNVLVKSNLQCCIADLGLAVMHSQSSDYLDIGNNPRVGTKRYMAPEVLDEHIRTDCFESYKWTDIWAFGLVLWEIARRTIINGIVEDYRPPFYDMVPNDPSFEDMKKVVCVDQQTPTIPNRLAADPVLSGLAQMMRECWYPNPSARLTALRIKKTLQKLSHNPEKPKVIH

T6: murine Bmpr2 (murine, UniProt O35607 27-1038)
T6 sequence (looked up): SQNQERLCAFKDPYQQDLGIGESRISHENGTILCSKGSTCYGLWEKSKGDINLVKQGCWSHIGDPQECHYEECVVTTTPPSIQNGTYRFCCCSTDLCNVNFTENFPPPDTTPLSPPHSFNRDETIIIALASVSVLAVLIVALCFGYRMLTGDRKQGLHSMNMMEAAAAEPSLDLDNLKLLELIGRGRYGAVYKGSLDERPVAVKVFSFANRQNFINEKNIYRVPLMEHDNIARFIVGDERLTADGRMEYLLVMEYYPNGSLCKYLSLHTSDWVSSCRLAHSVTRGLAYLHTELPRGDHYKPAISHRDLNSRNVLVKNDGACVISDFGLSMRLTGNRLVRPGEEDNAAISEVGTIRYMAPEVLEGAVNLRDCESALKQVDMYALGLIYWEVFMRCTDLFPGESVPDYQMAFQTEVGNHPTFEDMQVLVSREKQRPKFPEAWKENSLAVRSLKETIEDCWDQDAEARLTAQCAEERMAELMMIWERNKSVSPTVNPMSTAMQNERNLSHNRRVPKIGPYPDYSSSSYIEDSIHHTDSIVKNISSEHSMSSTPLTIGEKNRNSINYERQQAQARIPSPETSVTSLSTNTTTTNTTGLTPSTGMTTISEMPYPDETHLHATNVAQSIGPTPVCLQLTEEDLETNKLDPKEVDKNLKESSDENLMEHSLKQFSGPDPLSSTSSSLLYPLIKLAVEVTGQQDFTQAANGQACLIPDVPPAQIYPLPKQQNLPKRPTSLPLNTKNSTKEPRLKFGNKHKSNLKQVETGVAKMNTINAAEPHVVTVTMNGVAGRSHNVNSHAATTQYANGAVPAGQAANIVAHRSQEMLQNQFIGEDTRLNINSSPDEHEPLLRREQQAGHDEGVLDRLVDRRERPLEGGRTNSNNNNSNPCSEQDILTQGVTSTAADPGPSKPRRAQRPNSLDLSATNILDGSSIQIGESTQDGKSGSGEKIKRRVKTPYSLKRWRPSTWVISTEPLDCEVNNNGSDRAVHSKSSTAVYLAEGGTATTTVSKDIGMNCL


Columns and labels:
Test in all cases: cell-based or functional assay
[1] = biological target: wildtype human BMP2 (human) (UniProt P12643)
[2] = biological target: hBMP2(N341 V-N384W) (human) (UniProt P12643)
[3] = biological target: T1, murine Tβr1
[4] = biological target: T2, murine Acvr1 c
[5] = biological target: T3, murine Actr1 b
[6] = biological target: murine Bmpr1b (murine, UniProt P36898 14-502)
[7] = biological target: T4, murine Acvr1
[8] = biological target: T5, murine Acvrl1
[9] = biological target: murine Acvr2a (murine, UniProt P27038 20-513)
[10] = biological target: murine Acvr2b (murine, UniProt P27040 19-536)
[11] = biological target: T6, murine Bmpr2
[12] = biological target: murine Bmpr1a (murine, UniProt P36895 24-532)
Chain of murine Bmpr1a (P36895 24-532): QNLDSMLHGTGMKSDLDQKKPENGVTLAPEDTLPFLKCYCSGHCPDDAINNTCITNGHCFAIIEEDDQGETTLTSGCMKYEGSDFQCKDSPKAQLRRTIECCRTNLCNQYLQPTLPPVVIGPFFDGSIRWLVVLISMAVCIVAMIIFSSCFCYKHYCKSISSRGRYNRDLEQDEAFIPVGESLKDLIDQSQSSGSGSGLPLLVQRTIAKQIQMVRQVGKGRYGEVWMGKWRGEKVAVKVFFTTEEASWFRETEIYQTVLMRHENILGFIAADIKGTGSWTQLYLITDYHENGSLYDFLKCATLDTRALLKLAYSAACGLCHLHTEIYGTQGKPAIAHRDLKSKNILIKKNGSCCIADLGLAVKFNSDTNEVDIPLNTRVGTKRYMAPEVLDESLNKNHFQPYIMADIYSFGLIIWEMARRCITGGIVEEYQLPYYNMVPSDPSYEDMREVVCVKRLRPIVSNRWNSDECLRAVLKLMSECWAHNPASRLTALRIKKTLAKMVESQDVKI

Chain of murine Acvr2b (P27040 19-536): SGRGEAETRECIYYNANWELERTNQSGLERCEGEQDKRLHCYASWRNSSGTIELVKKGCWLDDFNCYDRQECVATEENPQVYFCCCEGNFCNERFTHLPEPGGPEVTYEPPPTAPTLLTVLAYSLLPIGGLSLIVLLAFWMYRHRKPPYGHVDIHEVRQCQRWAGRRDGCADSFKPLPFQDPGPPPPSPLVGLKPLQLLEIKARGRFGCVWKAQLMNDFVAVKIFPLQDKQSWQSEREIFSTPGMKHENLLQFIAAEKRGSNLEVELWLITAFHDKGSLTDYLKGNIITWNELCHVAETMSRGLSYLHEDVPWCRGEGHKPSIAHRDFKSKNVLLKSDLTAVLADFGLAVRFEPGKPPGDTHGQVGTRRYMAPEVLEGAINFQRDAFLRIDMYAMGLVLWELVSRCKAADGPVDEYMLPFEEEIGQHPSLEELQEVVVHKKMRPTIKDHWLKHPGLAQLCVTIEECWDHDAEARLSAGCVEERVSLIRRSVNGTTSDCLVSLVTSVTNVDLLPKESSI
Chain of murine Acvr2a (P27038 20-513): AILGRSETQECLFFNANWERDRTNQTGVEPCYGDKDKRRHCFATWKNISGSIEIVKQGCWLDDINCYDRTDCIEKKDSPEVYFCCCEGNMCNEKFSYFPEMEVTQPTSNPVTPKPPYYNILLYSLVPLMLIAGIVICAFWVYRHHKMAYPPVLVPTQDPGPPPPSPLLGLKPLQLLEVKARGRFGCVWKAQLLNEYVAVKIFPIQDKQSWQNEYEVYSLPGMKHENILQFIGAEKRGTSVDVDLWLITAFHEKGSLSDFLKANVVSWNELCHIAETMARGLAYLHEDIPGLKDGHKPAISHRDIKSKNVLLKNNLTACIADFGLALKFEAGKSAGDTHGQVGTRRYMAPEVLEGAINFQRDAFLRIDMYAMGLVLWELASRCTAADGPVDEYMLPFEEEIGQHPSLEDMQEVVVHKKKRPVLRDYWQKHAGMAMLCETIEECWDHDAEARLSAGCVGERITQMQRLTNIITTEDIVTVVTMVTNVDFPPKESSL
Chain of murine Bmpr1b (P36898 14-502): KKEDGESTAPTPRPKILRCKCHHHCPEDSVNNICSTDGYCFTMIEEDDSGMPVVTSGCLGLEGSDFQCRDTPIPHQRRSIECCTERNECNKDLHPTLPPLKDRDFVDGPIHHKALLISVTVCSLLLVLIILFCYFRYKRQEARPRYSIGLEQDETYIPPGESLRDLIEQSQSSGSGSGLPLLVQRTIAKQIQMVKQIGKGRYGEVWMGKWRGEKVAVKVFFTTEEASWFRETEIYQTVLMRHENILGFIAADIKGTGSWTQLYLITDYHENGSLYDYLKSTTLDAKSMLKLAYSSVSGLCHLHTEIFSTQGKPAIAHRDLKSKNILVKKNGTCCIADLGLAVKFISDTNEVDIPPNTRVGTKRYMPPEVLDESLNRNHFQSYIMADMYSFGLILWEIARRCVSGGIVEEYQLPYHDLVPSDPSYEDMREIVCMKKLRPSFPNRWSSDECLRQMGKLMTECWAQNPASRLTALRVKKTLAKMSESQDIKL

Molecule	rel. luciferase activity (SBE reporter, NIH3T3 cells) at 5x surplus of co-transfected NOG DNA (rel. luciferase activity) [1]	rel. luciferase activity (SBE reporter, NIH3T3 cells) at 50x surplus of co-transfected NOG DNA (rel. luciferase activity) [1]	NOG DNA surplus that blocks SBE reporter activation to control levels, NIH3T3 cells (fold surplus of transfected NOG-DNA) [2]	rel. luciferase activity (SBE reporter, NIH3T3 cells) at 5x surplus of co-transfected NOG DNA (rel. luciferase activity) [2]	rel. luciferase activity (SBE reporter, NIH3T3 cells) at 50x surplus of co-transfected NOG DNA (rel. luciferase activity) [2]	chondrogenic potential in chicken micromass culture (Alcian blue), NOG co-expressed ([2]; scale: % of the wild-type activity in the absence of its antagonist)	rel. luciferase activity (SBE reporter, COS-1 cells) [3] [rel. luciferase activity]	rel. luciferase activity (SBE reporter, COS-1 cells) [4] [rel. luciferase activity]	rel. luciferase activity (SBE reporter, COS-1 cells) [5] [rel. luciferase activity]	rel. luciferase activity (SBE reporter, COS-1 cells) [6] [rel. luciferase activity]	rel. luciferase activity (SBE reporter, COS-1 cells) [7] [rel. luciferase activity]	rel. luciferase activity (SBE reporter, COS-1 cells) [8] [rel. luciferase activity]	rel. luciferase activity (SBE reporter, COS-1 cells) [9] [rel. luciferase activity]	rel. luciferase activity (SBE reporter, COS-1 cells) [10] [rel. luciferase activity]	rel. luciferase activity (SBE reporter, COS-1 cells) [11] [rel. luciferase activity]	rel. luciferase activity (SBE reporter, COS-1 cells) [12] [rel. luciferase activity]
human NOG (Noggin) (from UniProt Q13253 28-232)	1.53	1.51	500	9.31	7.11	> 100	–	–	–	–	–	–	–	–	–	–
wildtype human BMP2 (ligand) QAKHKQRKRLKSSCKRHPLYVDFSDVGWNDWIVAPPGYHAFYCHGECPFPLADHLNSTNHAIVQTLVNSVNSKIPKACCVPTELSAISMLYLDENEKVVLKNYQDMVVEGCGCR	–	–	–	–	–	–	2.44	2.06	2.81	37.5	1.63	6.41	57.4	171	268	–
hBMP2(N341 V-N384W) (ligand) QAKHKQRKRLKSSCKRHPLYVDFSDVGWNDWIVAPPGYHAFYCHGECPFPLADHLNSTVHAIVQTLVNSVNSKIPKACCVPTELSAISMLYLDENEKVVLKWYQDMVVEGCGCR	–	–	–	–	–	–	2.52	2.75	3.4	28.8	1.23	7.57	46.7	156	262	24.6
